Results: patent publication US20230295301A1 (SHANGHAI JUNSHI BIOSCIENCES, published 2023)
Positions count from the first letter of the chain named.

T1: huCTLA-4 ECD (his-tag) (human, UniProt P16410 37-162)
T1 construct: also called HX1 hCTLA4 his; HX1 huCTLA4 his; not shown: his-tag
T1 sequence: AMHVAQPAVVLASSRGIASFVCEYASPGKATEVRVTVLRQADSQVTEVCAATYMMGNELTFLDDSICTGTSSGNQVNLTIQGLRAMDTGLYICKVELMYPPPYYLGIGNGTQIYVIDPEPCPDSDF

B1: huJS007-48 (antibody, human IgG1, kappa, V domains shown)
VH: QVQLQESGPGLVKPSQTLSLTCTVSAYSITSGYYWNWIRQHPGKGLEWIGYIGYDGSNNYNPSLKSRVTISRDTSKNQFSLKLSSVTAADTAVYYCARDYYSGYFDSWGQGTTLTVSS
VL: DIQMTQSPSSLSASVGDRVTITCRASQNVGTYVAWYQQKPGKAPKPLIYSTSYRYSGVPSRFSGSGSGTDFTLTISSLQPEDFATYFCHQYDTYPLTFGAGTKLELKR
B2: HuJS007-89 (antibody, V domains shown)
VH: QVQLQESGPGLVKPSQTLSLTCAVSGYSISSGYYWNWIRQFPGKGLEWMGYIGYDGSNYYNPSLKNRVTMSVDTSKNQFSLKLSSVTAVDTAVYYCARNYYSGYFDSWGQGTTVTVSS
VL: DIVMTQSPDSLAVSLGERATINCKASQNVGTYVAWYQQKPGQPPKPLIYSTSYRYSGVPDRFSGSGSGTDFTLTISSLQAEDVAVYFCHQYDTYPLTFGQGTKLEIK
notes: 1A5 VH6 + 4B7VL8; constant regions not specified
B3: HuJS007-53 (antibody, V domains shown)
VH: B1 VH
VL: B2 VL
notes: 4B7 VH2-2 + 4B7VL8; constant regions not specified
B4: HuJS007-60 (antibody, V domains shown)
VH: B1 VH with Q16E, A26G, H41P
VL: B2 VL with P46L, F87Y
notes: 4B7 VH2-3 + 4B7VL6; constant regions not specified
B5: HuJS007-46 (antibody, V domains shown)
VH: B1 VH
VL: B2 VL with Q100A, I106L
notes: 4B7 VH2-2 + 4B7VL1; constant regions not specified
B6: HuJS007-78 (antibody, V domains shown)
VH: B2 VH with F41P, M49I, N66S
VL: B2 VL with P46L, F87Y
notes: 1A5 VH5 + 4B7VL6; constant regions not specified
B7: HuJS007-69 (antibody, V domains shown)
VH: B1 VH with T23A
VL: B2 VL with P46L, F87Y
notes: 4B7 VH2-4 + 4B7VL6; constant regions not specified
B8: HuJS007-64 (antibody, V domains shown)
VH: B1 VH with T23A
VL: B2 VL with Q100A, I106L
notes: 4B7 VH2-4 + 4B7VL1; constant regions not specified
B9: HuJS007-51 (antibody, V domains shown)
VH: B1 VH
VL: B2 VL with P46L, F87Y
notes: 4B7 VH2-2 + 4B7VL6; constant regions not specified
B10: HuJS007-73 (antibody, V domains shown)
VH: B2 VH with F41P, M49I, N66S
VL: B2 VL with Q100A, I106L
notes: 1A5 VH5 + 4B7VL1; constant regions not specified
B11: HuJS007-71 (antibody, V domains shown)
VH: B1 VH with T23A
VL: B2 VL
notes: 4B7 VH2-4 + 4B7VL8; constant regions not specified
B12: HuJS007-80 (antibody, V domains shown)
VH: B2 VH with F41P, M49I, N66S
VL: B2 VL
notes: 1A5 VH5 + 4B7VL8; constant regions not specified
B13: HuJS007-55 (antibody, V domains shown)
VH: B1 VH with Q16E, A26G, H41P
VL: B2 VL with Q100A, I106L
notes: 4B7 VH2-3 + 4B7VL1; constant regions not specified
B14: HuJS007-62 (antibody, V domains shown)
VH: B1 VH with Q16E, A26G, H41P
VL: B2 VL
notes: 4B7 VH2-3 + 4B7VL8; constant regions not specified
B15: HuJS007-105 (antibody, V domains shown)
VH: B2 VH with S30T, F41P, M49I, Y59N, N99D
VL: B2 VL with P46L, F87Y
notes: 4B7 VH2-5 + 4B7VL6; constant regions not specified
B16: HuJS007-100 (antibody, V domains shown)
VH: B2 VH with S30T, F41P, M49I, Y59N, N99D
VL: B2 VL with Q100A, I106L
notes: 4B7 VH2-5 + 4B7VL1; constant regions not specified

Target: T1, huCTLA-4 ECD (his-tag)
Assay: ELISA, coated huCTLA-4 his
Experimental: HX1 hCTLA4 his was diluted with PBS (Hyclone) to 1.0 μg/mL, and the dilution was added to a microplate at 100 μL/well. The plate was let stand in an incubator at 37° C. and coated for 90 min and then washed, and 2% BSA was added to the plate at 200 μL/well. The plate was incubated in an incubator at 37° C. for 90 min and then washed. The humanized anti-CTLA-4 antibodies in Table 4 and the control antibody (ipilimumab) were diluted with a diluent (2% BSA) to 1000 ng/mL. The dilution performed each time was not higher than 10-fold. Then, the humanized antibodies and the control antibody were serially diluted 2.5-fold on a sample dilution plate. All the humanized antibody solutions and the control antibody solution were added to a microplate at 100 μL/well. The plate was incubated in an incubator at 37° C. for 60 min and then washed. An HRP-conjugated goat anti-human antibody IgG (Fc specific) was diluted 5000-fold with 2% BSA, and the dilution was added to the microplate at 100 μL/well. The plate was incubated in an incubator at 37° C. for 60 min and then washed. The color development solution TMB was added at 100 μL/well, during which bubbles were avoided. Color development was allowed at 37° C. for 15 min in the dark and then terminated by adding 2 M hydrochloric acid solution at 100 μL/well, during which bubbles were avoided. Reading (wavelength: 450/620 nm) was done within 10 min using a microplate reader.

Binding result, binds:
B1
B2
B3
B4
B5
B6
B7
B8
B9
B10
B11
B12
B13
B14
B15
B16
